The values below come from patent publication US20100227824A1 (SYMTHERA CANADA, published 2010).

Holding throughout (test): micro-array, phage-presented peptide on printed CK
The target of experiment [1] is T1, MCP-2 (CCL8) (UniProt P80075 24-99).
T1 construct: Bought chemokine
T1 sequence (looked up): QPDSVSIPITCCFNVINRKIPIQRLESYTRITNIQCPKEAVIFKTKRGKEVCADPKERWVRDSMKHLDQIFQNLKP
The method, then: (§1) (1) Printing: Chemokine (CK) solution (in water) was serially diluted with Print Reagent (GenTel BioSurfaces USA) to final concentrations of 50 μg and 25 μg/ml. BSA/BSA-Biotin control solutions (in water) were diluted with Print Reagent to 100 μg/ml. Amplified stock of M13 phage control (M13KEgIII Cloning Vector, New England Biolabs, Cat.No.E8101S) was stored in Tris Buffered Saline (TBS; pH7.5, 4° C.) and diluted with Print Reagent to the working titre (10^8 pfu/μl). An automated spotting robot (16 pin print tool, 0.4mm head; BioRobotics, UK) was used to print the CK/BSA control/M13 control, 5 repeats per sample (CK 25 μg/ml and 50 μg/ml; BSA 100 μg/ml; M13 20 μl), on PATH Protein Microarray Slides (GenTel, Prod.No.2-1005/-1025) at […], and 50-70% relative humidity. Printed micro-array slides were stored at Room Temperature (RT) or 4° C. for at least 24 h before use.
(§2) (2) Blocking: Block Buffer (500 μl/partition; PATHblock, GenTel, Prod.No.2-1014) was applied to the slide for 1 hour at room temp (RT). After removal of Block Buffer, the slide was air dried for 25 minutes;
(§3) (11) Analysis: Quantitative analysis of micro-array was performed by the SpotReader program of Niles Scientific (USA) and presented as Relative Fluorescence (RF) as a function of CK concentration. Micro-array readout (Cy3 fluorescence) was quantified to determine the relative binding affinities of a CBP for the CKs and by inference, the specificity of the CBP for binding to a CK.

Experiment [2] deals with T2, MDC(69aa) (CCL22) (UniProt O00626 25-93).
T2 construct: Bought chemokine
T2 sequence (looked up): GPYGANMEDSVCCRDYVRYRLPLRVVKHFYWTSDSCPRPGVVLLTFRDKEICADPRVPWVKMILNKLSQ
As to the method: as §1, §2, §3

Experiment [3] has as its target T3, SDF-1α (CXCL12) (UniProt P48061-2 22-89).
T3 construct: Alpha isoform of CXCL12; also called SDFα
The method, then: as §1, §2, §3

For experiment [4], the target named is T4, I-TAC (CXCL11) (UniProt O14625 22-94).
T4 construct: Bought chemokine; also called I-TACK
T4 sequence (looked up): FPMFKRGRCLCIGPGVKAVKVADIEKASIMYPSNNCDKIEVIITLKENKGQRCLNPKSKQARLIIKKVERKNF
The method, then:
as §1, §2, §3

For experiment [5], the target named is T5, RANTES (CCL5) (UniProt P13501 24-91).
T5 construct: Bought chemokine
T5 sequence (looked up): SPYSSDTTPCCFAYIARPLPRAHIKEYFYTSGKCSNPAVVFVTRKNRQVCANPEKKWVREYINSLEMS
As to the method: as §1, §2, §3

In experiment [6] the target is T6, I-309 (CCL1) (UniProt P22362 23-96, limits assumed).
T6 construct: Bought chemokine
T6 sequence (looked up): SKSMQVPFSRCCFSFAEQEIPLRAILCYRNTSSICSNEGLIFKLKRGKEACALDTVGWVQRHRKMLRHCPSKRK
The method, then: as §1, §2, §3

Experiment [7] addresses T7, Lymphotactin (XCL-1) (UniProt P47992 23-114, limits assumed).
T7 construct: Bought chemokine
T7 sequence (looked up): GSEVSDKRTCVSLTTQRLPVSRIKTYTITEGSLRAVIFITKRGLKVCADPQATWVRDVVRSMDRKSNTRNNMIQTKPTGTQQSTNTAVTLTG
The method, then:
as §1, §2, §3

Experiment [8] concerns the target T8, SDF-1β (CXCL12) (UniProt P48061 22-93).
T8 construct: Beta isoform of CXCL12; also called SDFβ
The method, then: as §1, §2, §3

In experiment [9] the target is T9, TECK (CCL25) (UniProt O15444 24-150).
T9 construct: Bought chemokine
T9 sequence (looked up): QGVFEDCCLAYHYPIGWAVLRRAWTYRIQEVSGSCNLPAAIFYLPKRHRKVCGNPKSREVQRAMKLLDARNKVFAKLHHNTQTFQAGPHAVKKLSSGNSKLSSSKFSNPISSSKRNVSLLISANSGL
As to the method: as §1, §2, §3

The target of experiment [10] is T10, BCA-1 (CXCL13) (UniProt O43927 23-109).
T10 construct: Bought chemokine
T10 sequence (looked up): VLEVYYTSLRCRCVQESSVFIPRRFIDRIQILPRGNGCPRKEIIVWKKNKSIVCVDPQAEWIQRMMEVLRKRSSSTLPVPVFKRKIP
The method, then:
as §1, §2, §3

Experiment [11] has as its target T11, Exodus-2 (CCL21) (UniProt O00585 24-134).
T11 construct: Bought chemokine
T11 sequence (looked up): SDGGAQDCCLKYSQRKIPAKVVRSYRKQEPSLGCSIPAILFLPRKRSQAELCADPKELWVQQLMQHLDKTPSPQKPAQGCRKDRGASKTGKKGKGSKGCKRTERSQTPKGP
The method, then:
as §1, §2, §3

The target of experiment [12] is T12, MCP-1 (CCL2) (UniProt P13500 24-99).
T12 construct: Bought chemokine
As to the method: as §1, §2, §3

Experiment [13] addresses T13, Eotaxin 3 (CCL26) (UniProt Q9Y258 24-94).
T13 construct: Bought chemokine
T13 sequence (looked up): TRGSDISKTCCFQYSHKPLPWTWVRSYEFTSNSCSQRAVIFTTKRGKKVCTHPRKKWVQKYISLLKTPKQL
The method, then:
as §1, §2, §3

The target in experiment [14] is T14, Mig (CXCL9) (UniProt Q07325 23-125).
T14 construct: Bought chemokine
T14 sequence (looked up): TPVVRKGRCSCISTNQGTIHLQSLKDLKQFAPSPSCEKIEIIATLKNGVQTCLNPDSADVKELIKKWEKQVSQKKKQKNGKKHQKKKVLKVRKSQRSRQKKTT
The method, then:
as §1, §2, §3

Experiment [15] concerns the target T15, Eotaxin 2 (CCL24) (UniProt O00175 27-104, limits assumed).
T15 construct: Bought chemokine
T15 sequence (looked up): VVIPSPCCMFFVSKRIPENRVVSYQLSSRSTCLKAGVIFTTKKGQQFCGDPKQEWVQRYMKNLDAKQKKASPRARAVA
As to the method: as §1, §2, §3

Experiment [16] deals with T16, IL-8 (CXCL8) (UniProt P10145 28-99, limits assumed).
T16 construct: also called IL-8(72aa); IL-8(77aa)
T16 sequence (looked up): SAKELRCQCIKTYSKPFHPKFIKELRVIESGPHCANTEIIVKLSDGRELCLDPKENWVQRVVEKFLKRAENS
As to the method:
as §1, §2, §3

Experiment [17] addresses T17, CTAC (CCL27) (UniProt Q9Y4X3 25-112).
T17 construct: Bought chemokine
T17 sequence (looked up): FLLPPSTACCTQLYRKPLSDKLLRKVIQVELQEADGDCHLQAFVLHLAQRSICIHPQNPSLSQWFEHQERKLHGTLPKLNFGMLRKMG
As to the method:
as §1, §2, §3

Experiment [18] deals with T18, MCP-4 (CCL13) (UniProt Q99616 24-98).
T18 construct: Bought chemokine
As to the method: as §1, §2, §3

The target of experiment [19] is T19, Eotaxin (CCL11) (UniProt P51671 24-97).
T19 construct: Bought chemokine
As to the method: as §1, §2, §3

The target in experiment [20] is T20, GRO-β (CXCL2) (UniProt P19875 35-107).
T20 construct: Bought chemokine
T20 sequence (looked up): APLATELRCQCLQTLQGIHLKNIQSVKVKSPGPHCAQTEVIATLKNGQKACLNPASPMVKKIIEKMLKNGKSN
As to the method: as §1, §2, §3

Experiment [21] concerns the target T21, IP-10 (CXCL10) (UniProt P02778 22-98).
T21 construct: Bought chemokine
T21 sequence (looked up): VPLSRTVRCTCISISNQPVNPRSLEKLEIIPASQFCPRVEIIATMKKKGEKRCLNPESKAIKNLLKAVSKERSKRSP
The method, then:
as §1, §2, §3

T3 sequence (P48061 22-89 limits assumed): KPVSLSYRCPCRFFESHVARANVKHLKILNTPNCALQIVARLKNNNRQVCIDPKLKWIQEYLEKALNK
T19 sequence (P51671 24-97 limits assumed): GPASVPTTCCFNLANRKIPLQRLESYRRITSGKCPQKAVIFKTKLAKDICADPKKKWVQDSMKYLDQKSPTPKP
T18 sequence (Q99616 24-98 limits assumed): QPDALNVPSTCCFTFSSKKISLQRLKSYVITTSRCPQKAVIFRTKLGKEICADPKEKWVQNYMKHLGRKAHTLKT
T8 sequence (P48061 22-93 limits assumed): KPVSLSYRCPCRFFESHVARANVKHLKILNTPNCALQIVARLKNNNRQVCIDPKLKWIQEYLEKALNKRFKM
T12 sequence (P13500 24-99 limits assumed): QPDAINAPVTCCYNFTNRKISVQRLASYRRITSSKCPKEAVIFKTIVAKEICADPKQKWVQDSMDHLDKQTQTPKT

Take DYDYGAPC [Phage-Presented Peptide 30 (Ph-p30)]: the “Relative Fluorescence Units (RFU)” value in experiment [1], in experiment [4], in [5], in experiment [6], in experiment [12] and in experiment [13] was more than 15000 RFU in each case. Besides, the “Relative Fluorescence Units (RFU)” value in [14], in experiment [15], in experiment [16], in [18] and in experiment [19] was more than 15000 RFU each time. The binding result in experiment [2], in experiment [3], in experiment [7], in experiment [8], in experiment [9] and in experiment [10] was “binds” in each case. For the same molecule, the binding result in [11] and in [17] was “binds” in each case.
As for HHTCSLHFP [Phage-Presented Peptide 16 (Ph-p16)], the binding result in experiment [1], in [2], in [4], in experiment [6], in [7] and in [9] was “binds” throughout. Besides, the binding result in experiment [10], in [12], in experiment [13], in experiment [14], in experiment [15] and in experiment [20] was “binds” throughout. Further, the binding result in experiment [19] is listed as “binds”. The “Relative Fluorescence Units (RFU)” value in experiment [5] and in [18] was more than 15000 RFU throughout.
Consider NAMCK [Phage-Presented Peptide 8.11 (Ph-p8.11)], for which the binding result in experiment [3], in experiment [8], in experiment [9], in experiment [10], in experiment [11] and in experiment [17] was “binds” throughout. In addition, the “Relative Fluorescence Units (RFU)” value in experiment [4], in experiment [21] and in experiment [13] was more than 10000 RFU in each case.
